According to the supplement of paper PMC9732359:
± gives the uncertainty stated by the source.

Test: protein stability index of a GFP-peptide fusion (yeast GPS) (PSI 1-4); higher = more stable; sorted into four equal gates, so the index is relative within each strain
Summary of the method: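 Tiled 17-residue yeast protein peptides were fused downstream of GFP in a plasmid that also expresses Cherry, and the pooled library was carried in yeast. Mid-log cultures in leucine-free medium were sorted into four equal gates by GFP/Cherry fluorescence ratio, and plasmids from each gate were PCR-amplified and Illumina-sequenced, with reads assigned to strains by barcodes. The protein stability index for each peptide was each gate's read frequency times its gate number, summed.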

AETTFLQDVIALSIADD [RPC53]
protein stability index (doa10∆): 2.24 ± 0.07
protein stability index (pdr5∆): 1.8 ± 0.065
protein stability index (san1∆): 1.97 ± 0.12
protein stability index (ubr1∆): 2.18 ± 0.07

AEQPLPVSPLDIYSDEA [RPS2]
protein stability index (doa10∆): 2.79 ± 0.07
protein stability index (pdr5∆): 2.97 ± 0.064
protein stability index (san1∆): 2.9 ± 0.038
protein stability index (ubr1∆): 2.92 ± 0.052

SDREMAALIASKVYYNL [RPN2]
protein stability index (doa10∆): 1.91 ± 0.06
protein stability index (pdr5∆): 1.83 ± 0.056
protein stability index (san1∆): 1.5 ± 0.055
protein stability index (ubr1∆): 1.7 ± 0.045

LSEWEEYLKGSESQLNS [YCS4]
protein stability index (doa10∆): 3.44 ± 0.13
protein stability index (pdr5∆): 3.65 ± 0.13
protein stability index (san1∆): 3.46 ± 0.12
protein stability index (ubr1∆): 3.49 ± 0.1

DNIGEIDESLFNLLILS [YCG1]
protein stability index (doa10∆): 2.96 ± 0.13
protein stability index (pdr5∆): 3.02 ± 0.11
protein stability index (san1∆): 2.31 ± 0.16
protein stability index (ubr1∆): 3.1 ± 0.14

VIFLSSLLTLVGSVTYQ [YJL039C/NUP192]
protein stability index (doa10∆): 1.39 ± 0.14
protein stability index (pdr5∆): 1.21 ± 0.14
protein stability index (san1∆): 1.14 ± 0.28
protein stability index (ubr1∆): 1.2 ± 0.13

ATSSTNANAGLFNKPPS [YOR098C/NUP1]
protein stability index (doa10∆): 2.86 ± 0.053
protein stability index (pdr5∆): 3.06 ± 0.073
protein stability index (san1∆): 3.05 ± 0.079
protein stability index (ubr1∆): 3.3 ± 0.058

IRNVIMSASNANDFQLT [SRB8]
protein stability index (doa10∆): 2.06 ± 0.048
protein stability index (pdr5∆): 2.34 ± 0.058
protein stability index (san1∆): 2.24 ± 0.087
protein stability index (ubr1∆): 2.19 ± 0.073

QIEGPFLIIVPKSTLDN [ISW2]
protein stability index (doa10∆): 2.88 ± 0.13
protein stability index (pdr5∆): 2.12 ± 0.1
protein stability index (san1∆): 2.17 ± 0.088
protein stability index (ubr1∆): 1.75 ± 0.097

EDTPANDSSATRSWRPP [RPB8]
protein stability index (doa10∆): 2.44 ± 0.24
protein stability index (pdr5∆): 2.88 ± 0.18
protein stability index (san1∆): 2.47 ± 0.2
protein stability index (ubr1∆): 2.95 ± 0.084

TFFPRCIIAVSCTLLER [POP1]
protein stability index (doa10∆): 1.31 ± 0.024
protein stability index (pdr5∆): 1.36 ± 0.032
protein stability index (san1∆): 1.5 ± 0.051
protein stability index (ubr1∆): 1.63 ± 0.03

LVAAFIASLERELILAK [YCG1]
protein stability index (doa10∆): 1.79 ± 0.065
protein stability index (pdr5∆): 2.21 ± 0.092
protein stability index (san1∆): 1.93 ± 0.081
protein stability index (ubr1∆): 1.48 ± 0.053

PFDQNLDSNNNNSNSNN [SWI1]
protein stability index (doa10∆): 2.65 ± 0.033
protein stability index (pdr5∆): 2.74 ± 0.037
protein stability index (san1∆): 2.839 ± 0.026
protein stability index (ubr1∆): 2.74 ± 0.027

TLPGDDELDQEILNLST [RPT5]
protein stability index (doa10∆): 3.32 ± 0.12
protein stability index (pdr5∆): 3.27 ± 0.12
protein stability index (san1∆): 3.58 ± 0.072
protein stability index (ubr1∆): 3.45 ± 0.098

GRGTLFVRGDSKIFRFQ [RPL24A]
protein stability index (doa10∆): 1.58 ± 0.05
protein stability index (pdr5∆): 1.74 ± 0.076
protein stability index (san1∆): 1.95 ± 0.087
protein stability index (ubr1∆): 2.21 ± 0.065

IETVMTQEQFVKRRRDM [SRB4]
protein stability index (doa10∆): 2.94 ± 0.22
protein stability index (pdr5∆): 3.24 ± 0.12
protein stability index (san1∆): 2.92 ± 0.1
protein stability index (ubr1∆): 2.49 ± 0.26

EPKKDKESIVLPTVGFD [YOR098C/NUP1]
protein stability index (doa10∆): 2.43 ± 0.18
protein stability index (pdr5∆): 3.43 ± 0.19
protein stability index (san1∆): 3.11 ± 0.16
protein stability index (ubr1∆): 2.92 ± 0.07

FDVMIDEESLVKYMPEQ [RPO21]
protein stability index (doa10∆): 2.3 ± 0.15
protein stability index (pdr5∆): 2.04 ± 0.16
protein stability index (san1∆): 1.86 ± 0.26
protein stability index (ubr1∆): 2.13 ± 0.058

VTSSFFYRGNYTDFENT [FAS1]
protein stability index (doa10∆): 2.05 ± 0.058
protein stability index (pdr5∆): 2.4 ± 0.049
protein stability index (san1∆): 2.43 ± 0.079
protein stability index (ubr1∆): 2.57 ± 0.056

MQKHGYIGEFEYIDDHR [RPS22A]
protein stability index (doa10∆): 3.16 ± 0.083
protein stability index (pdr5∆): 3.19 ± 0.084
protein stability index (san1∆): 2.93 ± 0.07
protein stability index (ubr1∆): 3.24 ± 0.093

VRIHSIQVLTEASSLGY [IRR1]
protein stability index (doa10∆): 1.49 ± 0.22
protein stability index (pdr5∆): 1.64 ± 0.12

TPAFGSNNTGNTAFGNS [YJL041W/NSP1]
protein stability index (doa10∆): 2.85 ± 0.11
protein stability index (pdr5∆): 3.13 ± 0.081
protein stability index (san1∆): 3.28 ± 0.067
protein stability index (ubr1∆): 3.08 ± 0.049

DQEIVIQQLHSVLNPFL [ISW2]
protein stability index (doa10∆): 2.3 ± 0.042
protein stability index (pdr5∆): 2.09 ± 0.042
protein stability index (san1∆): 1.98 ± 0.056
protein stability index (ubr1∆): 2.26 ± 0.032

DLKFEPQGRQSTTFADC [RPC40]
protein stability index (doa10∆): 3.37 ± 0.19
protein stability index (pdr5∆): 3.3 ± 0.29
protein stability index (ubr1∆): 3.15 ± 0.075

AEKLGSKKAEKTGTKPA [RPL4A]
protein stability index (doa10∆): 3.14 ± 0.067
protein stability index (pdr5∆): 3.08 ± 0.07
protein stability index (san1∆): 3.13 ± 0.05
protein stability index (ubr1∆): 3.06 ± 0.072

ATVPSGRPETYIWRYLP [RPO31]
protein stability index (doa10∆): 2.27 ± 0.12
protein stability index (pdr5∆): 1.81 ± 0.092
protein stability index (san1∆): 1.16 ± 0.16
protein stability index (ubr1∆): 1.49 ± 0.11

ADYWTHAYRDVLAQYHE [SNF6]
protein stability index (doa10∆): 3.02 ± 0.071
protein stability index (pdr5∆): 3.23 ± 0.08
protein stability index (san1∆): 3.06 ± 0.058
protein stability index (ubr1∆): 2.81 ± 0.049

GTQMTLKTFHFAGVASM [RPO31]
protein stability index (doa10∆): 1.63 ± 0.11
protein stability index (pdr5∆): 1.85 ± 0.088
protein stability index (san1∆): 1.68 ± 0.13
protein stability index (ubr1∆): 2.1 ± 0.12

VIYRGPEPSHIDQVMMS [RET1]
protein stability index (doa10∆): 3.01 ± 0.085
protein stability index (pdr5∆): 3.23 ± 0.13
protein stability index (san1∆): 3.19 ± 0.067
protein stability index (ubr1∆): 2.77 ± 0.088

NKTNNEDLFDDYPSTSL [NUT1]
protein stability index (doa10∆): 2.22 ± 0.078
protein stability index (pdr5∆): 3.09 ± 0.054
protein stability index (san1∆): 2.85 ± 0.12
protein stability index (ubr1∆): 1.79 ± 0.061

MTAVRRSTRIRTKSQVI [IRR1]
protein stability index (doa10∆): 2.9 ± 0.15
protein stability index (pdr5∆): 3.23 ± 0.081
protein stability index (san1∆): 3.42 ± 0.077
protein stability index (ubr1∆): 3.38 ± 0.1

SKQDVEALIEFIYDTEK [FAS2]
protein stability index (doa10∆): 3.23 ± 0.1
protein stability index (pdr5∆): 3.17 ± 0.083
protein stability index (san1∆): 3.04 ± 0.13
protein stability index (ubr1∆): 3.08 ± 0.073

KFTTVLAKILARSIDVE [ECM29]
protein stability index (pdr5∆): 1.53 ± 0.2
protein stability index (san1∆): 2.94 ± 0.14
protein stability index (ubr1∆): 3.01 ± 0.22

GIPPPYDKKKRVVVPQA [RPL16B]
protein stability index (doa10∆): 1.83 ± 0.046
protein stability index (pdr5∆): 2.2 ± 0.059
protein stability index (san1∆): 1.99 ± 0.12
protein stability index (ubr1∆): 2.13 ± 0.058

PTITLDDVYRPAAESKI [SNF5]
protein stability index (doa10∆): 3.13 ± 0.068
protein stability index (pdr5∆): 3.11 ± 0.071
protein stability index (san1∆): 3.02 ± 0.09
protein stability index (ubr1∆): 2.98 ± 0.068

LPTDGGLTSRLQRQQRK [POP4]
protein stability index (doa10∆): 2.95 ± 0.16
protein stability index (pdr5∆): 3.3 ± 0.17
protein stability index (san1∆): 3.13 ± 0.12
protein stability index (ubr1∆): 3.38 ± 0.12

EDLLHYIEEKHPTIYES [POP4]
protein stability index (doa10∆): 3.47 ± 0.078
protein stability index (pdr5∆): 3.4 ± 0.093
protein stability index (san1∆): 3.37 ± 0.077
protein stability index (ubr1∆): 3.27 ± 0.084

FHKQQAHFWKPVLNLDK [RPL28]
protein stability index (doa10∆): 2.93 ± 0.067
protein stability index (pdr5∆): 3.19 ± 0.056
protein stability index (san1∆): 2.76 ± 0.057
protein stability index (ubr1∆): 2.93 ± 0.052

SQVVETHKVTDIYSHEY [YMR129W/POM152]
protein stability index (doa10∆): 2.75 ± 0.083
protein stability index (pdr5∆): 2.77 ± 0.089
protein stability index (san1∆): 2.68 ± 0.073
protein stability index (ubr1∆): 2.83 ± 0.15

NVVEIWVFSYLRWFELK [SIR3]
protein stability index (doa10∆): 1.31 ± 0.088
protein stability index (pdr5∆): 1.38 ± 0.066
protein stability index (san1∆): 2.17 ± 0.16
protein stability index (ubr1∆): 2.21 ± 0.063

HYGNEHIRRMVPLAMGI [RPN1]
protein stability index (doa10∆): 1.29 ± 0.082
protein stability index (pdr5∆): 1.33 ± 0.064
protein stability index (san1∆): 1.24 ± 0.091
protein stability index (ubr1∆): 1.47 ± 0.065

KDDRFVPVRKFKGNNGV [RPN2]
protein stability index (doa10∆): 2.02 ± 0.07
protein stability index (pdr5∆): 2.77 ± 0.09
protein stability index (san1∆): 2.94 ± 0.069
protein stability index (ubr1∆): 2.28 ± 0.053

SHEERIEAIDEYNKPNS [ISW2]
protein stability index (doa10∆): 2.01 ± 0.063
protein stability index (pdr5∆): 2.12 ± 0.054
protein stability index (san1∆): 1.84 ± 0.076
protein stability index (ubr1∆): 2.94 ± 0.039

RNFSLAIIDKNTGLTFK [PRE4]
protein stability index (doa10∆): 3.14 ± 0.068
protein stability index (pdr5∆): 3.07 ± 0.071
protein stability index (san1∆): 3.14 ± 0.043
protein stability index (ubr1∆): 3.18 ± 0.058

SAFKFIHTQLSEIKQQI [YJL039C/NUP192]
protein stability index (doa10∆): 2.33 ± 0.1
protein stability index (pdr5∆): 2.62 ± 0.087
protein stability index (san1∆): 2.82 ± 0.12
protein stability index (ubr1∆): 2.83 ± 0.061

NNLSNQLETLTGSIRHR [CSE2]
protein stability index (doa10∆): 3.06 ± 0.096
protein stability index (pdr5∆): 2.98 ± 0.06
protein stability index (san1∆): 3.04 ± 0.049
protein stability index (ubr1∆): 3.13 ± 0.059

LRELSCCINAAFLALVD [RRP46]
protein stability index (doa10∆): 2.38 ± 0.059
protein stability index (pdr5∆): 2.81 ± 0.074
protein stability index (san1∆): 2.88 ± 0.051
protein stability index (ubr1∆): 2.65 ± 0.065

DVKKPFSFGTSQPNNTP [YLR335W/NUP2]
protein stability index (doa10∆): 2.61 ± 0.096
protein stability index (pdr5∆): 2.34 ± 0.083
protein stability index (san1∆): 2.5 ± 0.12
protein stability index (ubr1∆): 2.15 ± 0.064

VKPHDEGSKSHPFGHAL [RPL27A]
protein stability index (doa10∆): 2.95 ± 0.064
protein stability index (pdr5∆): 2.97 ± 0.053
protein stability index (san1∆): 2.88 ± 0.08
protein stability index (ubr1∆): 3.1 ± 0.047

SDNSVSVRLQVTKILPH [IRR1]
protein stability index (doa10∆): 2.86 ± 0.15
protein stability index (pdr5∆): 2.92 ± 0.12
protein stability index (san1∆): 2.74 ± 0.097
protein stability index (ubr1∆): 3.04 ± 0.074

NQIQRQQQQQFRHHVQI [SNF5]
protein stability index (doa10∆): 1.86 ± 0.04
protein stability index (pdr5∆): 2.08 ± 0.045
protein stability index (san1∆): 1.88 ± 0.085
protein stability index (ubr1∆): 1.91 ± 0.03

FFPYYVHTIIAGLDEDG [PRE7]
protein stability index (doa10∆): 3.65 ± 0.15
protein stability index (pdr5∆): 3.31 ± 0.12
protein stability index (san1∆): 3.35 ± 0.092
protein stability index (ubr1∆): 3.26 ± 0.095
